The labels stand for the following.
B1: gC1qR, wild type, mature recombinant (receptor for the globular heads of C1q) (receptor, UniProt Q07021 74-282, looked up)
chain: LHTDGDKAFVDFLSDEIKEERKIQKHKTLPKMSGGWELELNGTEAKLVRKVAGEKITVTFNINNSIPPTFDGEEEPSQGQKVEEQEPELTSTPNFVVEVIKNDDGKKALVLDCHYPEDEVGQEDEAESDIFSIREVSFQSTGESEWKDTNYTLNTDSLDWALYDHLMDFLADRGVDNTFADELVELSTALEHQEYITFLEDLKSFVKSQ
modifications: biotin (biotinylated gC1qR in the ELISA; not said for the SPR surface)
notes: also called gC1qR-WT; biotinylated gC1qR

The target of experiment [1] is T1, SARS-CoV-2 nucleocapsid (N) protein, recombinant (SARS-CoV-2, UniProt P0DTC9 1-419).
T1 construct: also called Nucleocapsid protein
As to the kind of experiment: SPR; gC1qR-WT or gC1qR-ΔΔ immobilised; two-fold dilution series of analyte injected; reference-corrected sensorgrams fit to kinetic models; apparent KD. To be noted: both partners purified. In general terms: SPR reads the build-up and loss of mass on a sensor chip optically.

In experiment [2] the target is B1. The experiment is described as above. To be noted: both partners purified.

We go through two molecules from PMC8602850, “SARS-CoV-2 Exacerbates COVID-19 Pathology Through Activation of the Complement and Kinin Systems” (Frontiers in Immunology, 2021).

Turning to B1, the Kd in experiment [1] stood at 6 µM. On to HKHGHGHGKHKNKGKKNGKH [synthetic peptide corresponding to the gC1qR-binding region from HK], for which the Kd in experiment [2] was determined as 2000 µM.
